Source: FireProtDB (doi:10.1021/bi002752b)
“And” between values parts separate entries of the source, which are not always exact repeats. Identical values can stand only once.

Conditions: Pseudomonas putida, 25 °C, GdnHCl, phosphate 50 mM, reversible: yes, whole UniProt chain shown

B1: 2-hydroxymuconate tautomerase wild type, Q01468 (protein)
chain: MPIAQIHILEGRSDEQKETLIREVSEAISRSLDAPLTSVRVIITEMAKGHFGIGGELASKVRR
In the case of B1, the “denaturant midpoint (higher = more stable)” value (from here on “denaturant midpoint”) (pH 6, CD) is reported as 1.9 M and 2.1 M and 2.3 M, the “denaturant midpoint” value (pH 6, activity) is reported as 1.4 M and 1.7 M and the “denaturant midpoint” value (pH 7.4, CD) is reported as 2.4 M and 2.7 M and 2.9 M. The “denaturant midpoint” value (pH 7.4, activity) was 2.2 M and 2.5 M and 2.9 M, the “denaturant midpoint” value (pH 8.5, CD) was 2.5 M and 2.8 M and 3 M and the “denaturant midpoint” value (pH 8.5, activity) was 2.5 M and 2.7 M and 2.9 M.
